# Measurements taken from ChEMBL document CHEMBL2073821, “Immunohistochemical and functional characterization of pH-dependent intestinal absorption of weak organic acids by the monocarboxylic acid transporter MCT1” (J Pharm Pharmacol, 1999).
# B1: Monocarboxylate transporter 1 (Rattus norvegicus), P53987 (protein)
# chain: MPPAIGGPVGYTPPDGGWGWAVVVGAFISIGFSYAFPKSITVFFKEIEIIFSATTSEVSWISSIMLAVMYAGGPISSILVNKYGSRPVMIAGGCLSGCGLIAASFCNTVQELYFCIGVIGGLGLAFNLNPALTMIGKYFYKKRPLANGLAMAGSPVFLSTLAPLNQAFFGIFGWRGSFLILGGLLLNCCVAGSLMRPIGPQQGKVEKLKSKESLQEAGKSDANTDLIGGSPKGEKLSVFQTVNKFLDLSLFTHRGFLLYLSGNVVMFFGLFTPLVFLSNYGKSKHFSSEKSAFLLSILAFVDMVARPSMGLAANTRWIRPRVQYFFAASVVANGVCHLLAPLSTTYVGFCIYAGVFGFAFGWLSSVLFETLMDLVGPQRFSSAVGLVTIVECCPVLLGPPLLGRLNDMYGDYKYTYWACGVILIIAGLYLFIGMGINYRLVAKEQKAEEKKRDGKEDETSTDVDEKPKKTMKETQSPAPLQNSSGDPAEEESPV
# Key:
# [1] = substrate: C[C@H](O)C(=O)O; experiment: (§1) TP_TRANSPORTER: uptake in MCT1-expressing MDA-MB231 cells; format: functional, cell-based; details: MDA-MB-231
# [2] = substrate: O=C(O)c1ccccc1; experiment: as §1; format: functional, cell-based; details: MDA-MB-231
protein,measurement,setting,value
B1,Km,[1],2280 µM
same,Km,[2],3050 µM
